Laboratory results as given in patent US20100143336A1.

Target: human Toll-like Receptor 2, wild type (human) (UniProt O60603)
Experiment: cell-based or functional assay

UniProt O60603, sequence (O60603 21-784 D726E limits assumed): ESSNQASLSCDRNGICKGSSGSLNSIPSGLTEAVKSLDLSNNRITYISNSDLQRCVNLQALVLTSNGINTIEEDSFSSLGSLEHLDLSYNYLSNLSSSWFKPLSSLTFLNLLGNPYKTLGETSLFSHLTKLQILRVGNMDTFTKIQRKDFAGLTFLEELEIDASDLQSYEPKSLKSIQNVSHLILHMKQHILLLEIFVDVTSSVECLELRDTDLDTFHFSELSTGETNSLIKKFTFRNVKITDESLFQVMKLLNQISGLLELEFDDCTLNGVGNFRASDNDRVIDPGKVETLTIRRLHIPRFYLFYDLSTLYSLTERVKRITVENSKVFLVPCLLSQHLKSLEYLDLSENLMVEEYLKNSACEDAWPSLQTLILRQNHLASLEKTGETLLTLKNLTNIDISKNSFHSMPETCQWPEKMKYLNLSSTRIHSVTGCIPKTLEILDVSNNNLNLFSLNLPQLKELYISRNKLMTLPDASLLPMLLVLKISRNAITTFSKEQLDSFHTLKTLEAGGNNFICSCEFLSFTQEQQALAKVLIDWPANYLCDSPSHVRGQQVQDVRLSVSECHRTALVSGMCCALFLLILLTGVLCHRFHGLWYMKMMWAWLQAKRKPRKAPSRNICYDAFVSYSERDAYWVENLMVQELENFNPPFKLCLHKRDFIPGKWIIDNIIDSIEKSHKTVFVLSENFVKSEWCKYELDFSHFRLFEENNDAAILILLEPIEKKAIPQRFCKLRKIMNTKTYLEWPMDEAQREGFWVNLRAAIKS

Substance: OPN-301 anti-TLR2 monoclonal antibody (mouse Toll-like Receptor 2 (TLR2) antibody, clone T2.5, HyCult Biotechnology)
- TNF-alpha production from U937 cells stimulated with 100 ng/ml Pam3CSK4: 30 ng/mL
